Experiment [1] addresses T1, MED23 (mouse (Mus musculus; endogenous in CH12), UniProt Q80YQ2 1-1367).
T1 construct: MED23, Mus musculus, endogenous lower Tail subunit of Mediator; Model building started from the X-ray structure of human MED23 (PDB 6H02); source: endogenous, CH12 mouse B lymphoma nuclear extract; immunopurified as part of Mediator (FLAG M2 agarose, FLAG peptide elution)
T1 sequence (looked up): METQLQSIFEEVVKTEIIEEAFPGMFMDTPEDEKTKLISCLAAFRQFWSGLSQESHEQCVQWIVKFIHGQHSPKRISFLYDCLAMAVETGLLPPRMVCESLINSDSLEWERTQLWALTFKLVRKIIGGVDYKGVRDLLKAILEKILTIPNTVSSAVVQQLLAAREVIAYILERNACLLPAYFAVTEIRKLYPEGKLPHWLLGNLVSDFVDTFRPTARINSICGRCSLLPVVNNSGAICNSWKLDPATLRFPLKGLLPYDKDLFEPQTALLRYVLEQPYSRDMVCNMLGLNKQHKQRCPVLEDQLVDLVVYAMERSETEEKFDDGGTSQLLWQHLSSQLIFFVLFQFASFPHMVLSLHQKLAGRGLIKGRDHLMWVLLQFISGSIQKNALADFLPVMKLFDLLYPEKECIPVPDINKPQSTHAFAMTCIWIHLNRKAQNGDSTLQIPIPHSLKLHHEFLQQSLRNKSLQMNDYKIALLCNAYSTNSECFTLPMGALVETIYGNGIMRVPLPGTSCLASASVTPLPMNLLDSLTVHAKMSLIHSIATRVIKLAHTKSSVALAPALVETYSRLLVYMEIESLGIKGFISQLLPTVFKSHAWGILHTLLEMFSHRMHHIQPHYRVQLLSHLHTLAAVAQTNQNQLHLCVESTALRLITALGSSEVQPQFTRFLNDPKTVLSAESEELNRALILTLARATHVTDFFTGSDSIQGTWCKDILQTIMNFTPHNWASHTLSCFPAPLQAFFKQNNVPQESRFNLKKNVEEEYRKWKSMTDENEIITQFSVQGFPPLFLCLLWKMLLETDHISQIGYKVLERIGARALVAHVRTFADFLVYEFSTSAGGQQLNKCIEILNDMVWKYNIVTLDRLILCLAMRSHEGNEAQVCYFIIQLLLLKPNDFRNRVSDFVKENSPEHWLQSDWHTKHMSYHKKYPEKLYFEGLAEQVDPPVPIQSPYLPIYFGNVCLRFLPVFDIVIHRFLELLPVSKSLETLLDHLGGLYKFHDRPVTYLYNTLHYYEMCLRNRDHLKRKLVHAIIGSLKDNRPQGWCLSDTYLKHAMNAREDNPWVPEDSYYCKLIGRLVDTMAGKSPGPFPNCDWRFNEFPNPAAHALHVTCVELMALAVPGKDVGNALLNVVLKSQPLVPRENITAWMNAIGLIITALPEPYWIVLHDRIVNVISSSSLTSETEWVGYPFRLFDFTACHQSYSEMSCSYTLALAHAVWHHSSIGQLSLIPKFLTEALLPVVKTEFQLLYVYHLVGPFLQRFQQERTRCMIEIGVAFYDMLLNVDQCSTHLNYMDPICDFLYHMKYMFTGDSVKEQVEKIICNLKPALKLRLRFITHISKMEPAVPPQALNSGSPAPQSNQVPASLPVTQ
As to the kind of experiment: cryo-EM structure; endogenous mouse Mediator immunopurified from CH12 nuclear extract through 3×FLAG-MED19 or 3×FLAG-MED25; eluted in 50 mM HEPES pH 7.9, 100 mM KCl, 5% glycerol, 1 mM EDTA, 0.005% NP-40; map at 4.0 Å overall, focused refinement of the MED1 and knob/hook ends (6-10 Å). Conditions: both partners purified.

The target in experiment [2] is T2, MED16 (mouse (Mus musculus; endogenous in CH12), UniProt Q6PGF3 1-828).
T2 construct: MED16, Mus musculus, endogenous lower Tail subunit of Mediator; source: endogenous, CH12 mouse B lymphoma nuclear extract; immunopurified as part of Mediator (FLAG M2 agarose, FLAG peptide elution)
T2 sequence (looked up): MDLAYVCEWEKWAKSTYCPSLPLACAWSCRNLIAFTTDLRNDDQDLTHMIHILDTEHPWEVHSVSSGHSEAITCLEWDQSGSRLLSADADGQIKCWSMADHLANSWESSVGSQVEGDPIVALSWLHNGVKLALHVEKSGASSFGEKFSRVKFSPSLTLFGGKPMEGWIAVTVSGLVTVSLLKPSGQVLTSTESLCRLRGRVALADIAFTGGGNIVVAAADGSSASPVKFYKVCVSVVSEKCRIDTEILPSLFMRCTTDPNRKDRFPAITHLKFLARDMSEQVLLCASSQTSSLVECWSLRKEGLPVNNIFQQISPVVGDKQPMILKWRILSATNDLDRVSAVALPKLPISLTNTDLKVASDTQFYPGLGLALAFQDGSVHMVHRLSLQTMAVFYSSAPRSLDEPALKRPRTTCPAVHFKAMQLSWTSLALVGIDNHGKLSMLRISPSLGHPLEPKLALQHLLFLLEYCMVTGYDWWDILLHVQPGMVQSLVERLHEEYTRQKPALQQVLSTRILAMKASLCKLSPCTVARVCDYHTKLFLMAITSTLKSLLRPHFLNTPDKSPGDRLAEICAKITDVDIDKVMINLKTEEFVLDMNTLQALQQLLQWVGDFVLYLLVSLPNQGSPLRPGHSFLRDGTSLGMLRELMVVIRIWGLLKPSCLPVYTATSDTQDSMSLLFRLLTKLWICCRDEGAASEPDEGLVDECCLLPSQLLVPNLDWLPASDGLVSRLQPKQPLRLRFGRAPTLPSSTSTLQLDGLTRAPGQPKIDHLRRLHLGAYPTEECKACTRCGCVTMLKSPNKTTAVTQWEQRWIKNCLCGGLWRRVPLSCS
Described as above. Conditions: both partners purified.

B1: MED15 (natural protein, mouse (Mus musculus; endogenous in CH12), UniProt Q924H2 1-789, looked up)
chain: MDVSGQETDWRSAAFRQKLVSQIEDAMRKAGVAHSKSSKDMESHVFLKAKTRDEYLSLVARLIIHFRDIHNKKSQASVSDPMNALQSLTGGPTPGAAGIGMPPRGPGQSLGGMGGLGAMGQPLPLSGQPPPGTSGMAPHGMAVVSTATPQTQLQLQQVALQQQQQQQQQQQFQQQQAALQQQQQQQQQQQQQQQFQAQQNAMQQQFQAVVQQQQLQQQQQQQHLIKLHHQSQQQQIQQQQLQRMAQLQLQQQQQQQQQQALQAQPPMQQPSMQQPQPPPSQALPQQLSQLHHPQHHQPPPQAQQSPIAQNQPPQIPPQSQSQPLVSQAQALPGPMLYAAQQQLKFVRAPMVVQQPQVQPQVQQVQPQVQPQAAVQAAQSAQMVAPGVQMIAEALAQGGMHVRARFPPTSTMSAGPSSSISLGGQPTTQVSQSSLTMLSSPSPGQQVQTPQSMPPPPQPSPQPGSQPNSNVSSGPAPSPSSFLPSPSPQPSQSPVTARTPQNFSVPSPGPLNTPVNPSSVMSPAGSSQAEEQQYLDKLKQLSKYIEPLRRMINKIDKNEDRKKDLSKMKSLLDILTDPSKRCPLKTLQKCEIALEKLKNDMAVPTPPPPPVLPTKQQDLCQPLLDAVLANIRSPVFNHSLYRTFVPAMMAIHGPPIVSPVVCSRKRRFEEDERQSIPNVLQGEVARLDPKFLVNLDPSHCSNNGTVHLICKLDDKDLPSVPPLELSVPADYPAQSPMWIDRQWQYDANPFLQSVHRCMTSRLLQLPDKHSVTALLNTWAQSIHQACLSAA
notes: MED15, Mus musculus, endogenous lower Tail subunit of Mediator; only the C-terminal portion (from residue 620) is seen in the map; source: endogenous, CH12 mouse B lymphoma nuclear extract; immunopurified as part of Mediator (FLAG M2 agarose, FLAG peptide elution)
As for B1, the binding result in experiment [1] and in experiment [2] was “binds” in each case.

B2: MED25 (natural protein, mouse (Mus musculus; endogenous in CH12), UniProt Q8VCB2 1-745, looked up)
chain: MVPGSEGPARAGGLVADVVFVIEGTANLGPYFEELRKHYLLPAIEYFNGGPPAETDFGGDYGGTQYSLVVFNTVDCAPESYVQCHAPTSSAYEFVTWLDGIKFMGGGGESCSLIAEGLSTALQLFDDFKKMREQIGQTHRVCLLICNSPPYLLPAVESTTYSGCTTESLVQKIGERGIHFSIVSPRKLPALRLLFEKAAPPALLEPLQQPADVSQDPRHMVLVRGLVLPVGGSSTSGSLQTKQAVPLPPAPASAATLSAAPPQALPPVPPQYQVPGNLSAAQVAAQNAVEAAKSQKAGLGPRFSPINPLQQAAPGVGPPFSQAPAPPLAPVPPGAPKPPPASQPSLVSTVAPGPVLAAPAQPGAPSLAGTVTPGGVNGPSAAQLGGPALGGQQSVSNKLLAWSGVLEWQEKPKPASVDANTKLTRSLPCQVYVNHGENLKTEQWPQKLIMQLIPQQLLTTLGPLFRNSRMVQFHFTNKDLESLKGLYRIMGNGFAGCVHFPHTAPCEVRVLMLLYSSKKKIFMGLIPYDQSGFVNGIRQVITNHKQVQQQKLEQQRGMGAQQAPPVLGPILEEQARPPQNLLQLRAPQPQPQGAVGASAATGQPQPQGATQAPTGAPQGPPGAAPGPPPSGPILRPQNPGANPQLRSLLLNPAPPQTGVPPPQASLHHLQPPGAPTLLPPHQSMGQPQLGPQLLHPPPAQSWPTQLPQRAPLPGQMLLSGGPRGPVPQPGLQPSVMEDDILMDLI
notes: MED25, Mus musculus, endogenous lower Tail subunit of Mediator; only the N-terminal von Willebrand domain (aa 15-216) is seen in the map; The 3×FLAG tag stands on MED25 only in the MED25-FLAG cell line; in the MED19-FLAG line MED25 is untagged; Images from the datasets were combined for the final map; also called MED25-FLAG; source: endogenous, CH12 mouse B lymphoma nuclear extract; …
Take B2: the binding result in experiment [1] and in experiment [2] was “binds” each time.

The values are drawn from article PMC7921410, “Structure of mammalian Mediator complex reveals Tail module architecture and interaction with a conserved core” (Nature Communications, 2021).
